{"source": "paper PMC12685063", "target": "Shigella flexneri LptDE complex (SfLptDE), His6 tag on LptE (Shigella flexneri)", "assay": "SEC"}
{"substance": "receptor binding protein (RBP) of the small siphophage Oekolampad (bas018) (natural protein)", "values": [{"measurement": "percent RBP (Oeko) binding (complex formation after 48 h, band densitometry against LptE)", "result": "15 to 35", "unit": "%"}]}
